Measurements as given in article PMC5148173.

Tests used:
[1] = target: N-terminally hexahistidine tagged N_TAIL R497G (measles virus (Edmonston B)) (UniProt P04851); assay: ITC; N_TAIL (25-180 uM) in the cell, XD (300-960 uM) in the microsyringe, 19 injections of 2 uL; 20 C; 10 mM Tris/HCl pH 8, 150 mM NaCl; single set of sites model
[2] = target: N-terminally hexahistidine tagged N_TAIL R490S (measles virus (Edmonston B)) (UniProt P04851); assay: as above
[3] = target: N_TAIL S491L fused to a Gaussia luciferase fragment (glu-PCA) (measles virus) (UniProt P04851); assay: split reporter (BiFC, NanoBiT); KD estimated from the glu-PCA luminescence with the empirically determined equation relating luminescence and the ITC KD values (Fig 4)
[4] = target: N-terminally hexahistidine tagged wt N_TAIL (C-terminal domain of the MeV nucleoprotein N, aa 401-525) (measles virus (Edmonston B)) (UniProt P04851); assay: ITC; conditions: domain or fragment

For “C-terminally hexahistidine tagged MeV XD (X domain of the phosphoprotein P, aa 459-507) (from UniProt P03422 459-507) (domain or fragment)”, the Kd [1] was 44 µM, the Kd [2] was 20 µM and the fold decrease in the binding affinity against wt N TAIL [2] was 7 fold.

“XD of the monomeric split-luciferase reassembly assay (glu-PCA) (from UniProt P03422 376-507) (domain or fragment)” showed a Kd [3] of 85 µM.

“C-terminally hexahistidine tagged MeV XD (X domain of the phosphoprotein P, aa 459-507) (from UniProt P03422 459-507)” gave a Kd [4] of 3 µM.
